For one assay, the target named is T1, PDK1 CD wt (Homo sapiens, UniProt O15530).
T1 construct: PDK1 CD (50-359), wt (0.35 μM), PDK1 [Phe224Trp] or PDK1 [Thr226Trp] were injected onto the system; GST (N); made in house; host or cells: insect cells
T1 sequence (O15530 50-359): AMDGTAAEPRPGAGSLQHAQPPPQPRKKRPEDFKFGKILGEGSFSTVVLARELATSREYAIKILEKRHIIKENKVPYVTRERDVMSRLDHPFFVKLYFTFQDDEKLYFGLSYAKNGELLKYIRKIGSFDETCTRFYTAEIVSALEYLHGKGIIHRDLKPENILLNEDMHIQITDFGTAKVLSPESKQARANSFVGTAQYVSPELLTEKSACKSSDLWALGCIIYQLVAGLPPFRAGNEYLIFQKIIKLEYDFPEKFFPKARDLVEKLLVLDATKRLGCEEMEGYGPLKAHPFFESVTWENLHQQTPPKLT
The assay is described as follows: Surface plasmon resonance (BiaCore) on biotin-P-HM-S6K chip. It counts as binding. The conditions noted are these: protein pre-incubated with PIFtide. On the procedure:
Surface Plasmon resonance (BiaCore) and alpha-screen interaction and displacement assays: Binding of GST-PDK1 to a P-HM-polypeptide derived from S6K1 shown in FIG. 6 was analysed by surface plasmon resonance on a BiaCore 3000 system using a streptavidin-coated Sensor chip (SA) and biotin-P-HM-polypeptide, as previously described (Biondi, R. M. et al., Embo. J. 20:4380-4390 (2001). The interaction of His-PDK1 with biotin-PIFtide and the displacement by compounds shown in FIG. 3 was performed using the alpha-screen Ni-Chelate kit (Perkin Elmer) on an Envision 2104 multilabel system (Perkin Elmer).
BiaCore analysis was performed as described previously (Biondi, R. M. et al., Embo. J. 19:979-988 (2000)). […] Since both mutants were performed on the same construct of PDK1, their mass should be very similar and therefore should also produce 600RU when all biotin-(P)HM-S6K polypeptides on the same chip are bound to the mutant PDK1 proteins. Unfortunately, when mutant PDK1 Phe224Trp and PDK1 Thr226Trp were analysed, the injection of the mutants at concentrations higher than 1.3 μM prompted unspecific effects, therefore making difficult the evaluation. […]
In general terms: In SPR one partner is held on a chip, and binding of the other changes the refractive index at the surface.

Another assay concerns the target T2, PDK1 catalytic domain (Homo sapiens, UniProt O15530).
T2 construct: The catalytic domain (CD) of PDK1 50-359 and its mutants
T2 sequence (O15530 50-359): T1 sequence (O15530 50-359)
Nature of the assay: TNP-ATP fluorescence probing of the ATP binding site conformation. The assay is classed as biochemical. To be noted: 40 μM TNP-ATP, 15 μM PDK1 catalytic domain. The source says: Probing the conformation of the ATP binding site in PDK1: The activation of PDK1 by HM-polypeptides and small compounds is due to a change in the conformation of the enzyme. We probed the conformation of the ATP binding site in PDK1 by scanning the steady-state fluorescence of TNP-ATP/PDK1, in the presence or absence of P-HM-polypeptides, PIFtide, or small molecular weight compounds. Data were obtained in a Varian Cary Eclipse spectrofluorometer (excitation λ=479 nm; emission scanning, λ=500-600 nm; excitation slit=10 nm; emission slit=10 nm) at a rate of 200 nm/min, with 150 datapoints/100 nm scanning and 0.3 s averaging time. The incubation was performed at 20° C. in a buffer containing 50 mM Tris pH 7.5, 0.1 mM EDTA, 187 mM NaCl, 40 μM TNP-ATP, 15 μM PDK1 catalytic domain, 1 mM DTT and 1% DMSO. In the absence of PDK1, TNP-ATP produced approximately 1.5 arbitrary units (a.u.) of fluorescence, and the inclusion of PDK1 increased its fluorescence intensity to approximately 3.3 a.u. […] In preliminary tests, inclusion of 2.5 mM MgCl2 in the assay mix produced similar results. Data for each condition are the average of 3 scans.

The next assay concerns the target T3, PDK1[Phe224Trp] (Homo sapiens, UniProt O15530, F224W).
T3 construct: The catalytic domain (CD) of PDK1 50-359 and its mutants Phe224Trp and Thr226Trp were expressed in insect cells and purified; made in house; host or cells: insect cells
T3 sequence (O15530 50-359 F224W): T1 sequence (O15530 50-359) with F175W
The assay is described as follows: PDK1 protein kinase activity test with T308tide substrate, Phe224Trp mutant. It counts as biochemical. The conditions noted are these: PDK1 CD 50-359, T308tide as substrate. On the procedure: Protein kinase activity tests: PDK1 activity tests were performed essentially as previously described (Biondi, R. M. et al., Embo. J. 20:4380-4390 (2001); Balendran, A. et al., J. Biol. Chem. 275:20806-20813 (2000); Biondi, R. M. et al., Embo. J. 19:979-988 (2000)) using T308tide as a substrate for PDK1. In brief, PDK1 activity assay was performed at room temperature (22° C.) in a 20 μl mix containing 50 mM Tris pH 7.5, 0.05 mg/ml BSA, 0.1% β-mercaptoethanol, 10 mM MgCl2, 100 μM [γ^32P]ATP (5-50 cpm/pmol), 0.003% Brij, 150 ng PDK1, and T308tide (from 0.1 to 1 mM). When appropriate, the PDK1 activity assay was performed in a 96 well format and 4 μl aliquots spotted with on p81 phosphocellulose papers (Whatmann) using ep motion 5070 (Eppendorf), washed in 0.01% phosphoric acid, dried, and then exposed and analysed using PhosphoImager technology (Typhoon, GE Healthcare). Activity measurements were performed in duplicates with less than 10% difference between pairs. Experiments were repeated at least twice. PDK1 specific activity at 22° C. was approximately 0.25 U/mg when the substrate concentration was 0.1 mM T308tide. […]

A further assay relates to PDK1. The assay is described as follows: PDK1 protein kinase activity test with T308tide substrate. It counts as biochemical, human. To be noted: T308tide as substrate. On the procedure:
In brief, PDK1 activity assay was performed at room temperature (22° C.) in a 20 μl mix containing 50 mM Tris pH 7.5, 0.05 mg/ml BSA, 0.1% β-mercaptoethanol, 10 mM MgCl2, 100 μM [γ^32P]ATP (5-50 cpm/pmol), 0.003% Brij, 150 ng PDK1, and T308tide (from 0.1 to 1 mM). […] Experiments were repeated at least twice.

Where a chain is given by its changes, count along the chain named.

The values below come from patent US20120003668A1, “HIGH RESOLUTION COMPLEX STRUCTURE AND ALLOSTERIC EFFECTS OF LOW MOLECULAR WEIGHT ACTIVATORS ON THE PROTEIN KINASE PDK1” (UNIVERSITAET DES SAARLANDES, priority 2008, published 2012).

Chain of PDK1 (O15530 51-360 limits assumed): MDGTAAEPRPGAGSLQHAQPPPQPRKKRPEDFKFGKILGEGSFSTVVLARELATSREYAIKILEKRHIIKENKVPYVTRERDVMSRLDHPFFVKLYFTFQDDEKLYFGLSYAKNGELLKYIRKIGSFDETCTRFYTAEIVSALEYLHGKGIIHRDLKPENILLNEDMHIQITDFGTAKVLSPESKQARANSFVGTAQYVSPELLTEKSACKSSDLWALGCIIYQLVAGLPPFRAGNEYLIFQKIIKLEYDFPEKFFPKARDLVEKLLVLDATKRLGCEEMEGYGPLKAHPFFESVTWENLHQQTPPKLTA

Turning to “REPRILSEEEQEMFRDFDYIADWC [PIFtide, polypeptide derived from the C-terminal 24 amino acids of the PDK1 substrate PRK2]”, the “displacement by PIFtide of PDK1 binding to biotin-P-HM-S6K” value with PDK1 CD wt is recorded as “displaced”. Further, in the assay with PDK1 catalytic domain, the “effect on TNP-ATP fluorescence intensity in the presence of PDK1” value is recorded as “decreased”. The “activation of PDK1[Phe224Trp]” value in the assay with PDK1[Phe224Trp] was “activated”. In the assay on PDK1, the “activation of PDK1” value is listed as “activated”.
